Measurements: patent US6566505 (THOMAS JEFFERSON UNIVERSITY, dated 2003)
Ends that are not written are not given here.

Key:
[1] = biological target: T1, ZEVD-AMC (carbobenzoxy-Glu-Val-Asp-aminomethylcoumarin)
T1 chain: EVD

[2] = biological target: T2, YVAD-AMC (Tyr-Val-Ala-Asp-aminomethylcoumarin)
T2 chain: YVAD

[3] = biological target: T3, DEVD-AMC (Asp-Glu-Val-Asp-aminomethylcoumarin)
T3 chain: DEVD

[4] = biological target: T4, wild type proMch6 (35S-labeled, in vitro translated)
T4 chain: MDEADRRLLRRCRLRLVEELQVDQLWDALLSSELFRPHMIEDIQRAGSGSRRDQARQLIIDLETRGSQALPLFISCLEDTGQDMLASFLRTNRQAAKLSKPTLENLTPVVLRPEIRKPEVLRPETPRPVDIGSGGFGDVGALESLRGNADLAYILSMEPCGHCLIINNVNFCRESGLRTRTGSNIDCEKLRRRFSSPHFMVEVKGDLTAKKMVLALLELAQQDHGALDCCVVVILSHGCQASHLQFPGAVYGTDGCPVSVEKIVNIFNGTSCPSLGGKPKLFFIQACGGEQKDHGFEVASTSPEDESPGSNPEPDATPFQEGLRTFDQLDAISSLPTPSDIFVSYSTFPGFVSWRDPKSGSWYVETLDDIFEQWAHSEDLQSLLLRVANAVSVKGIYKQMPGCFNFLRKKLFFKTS

[5] = biological target: T5, bacterially expressed recombinant Mch6 (6His-C terminal tagged protein) (human, UniProt P55211 1-416); assay: inhibition of the hydrolysis of 50 µM DEVD-AMC by recombinant Mch6 after 30 min preincubation with DEVD-CHO, continuous fluorometric assay
T5 construct: also called purified Mch6 protein; mammalian ced-3 homolog 6; not shown: C-terminal 6His tag from vector pET21b
T5 chain: T4 chain

B1: bacterially expressed recombinant Mch6 (6His-C terminal tagged protein) (protein)
chain: T4 chain
- Vmax/Km (ZEVD-AMC) [1]: 2.7
- Vmax/Km (YVAD-AMC) [2]: < 0.1
- Km (DEVD-AMC) [3]: 10 µM
- Vmax/Km (DEVD-AMC) [3]: 100

B2: purified recombinant human CPP32 (protein)
chain: SGISLDNSYKMDYPEMGLCIIINNKNFHKSTGMTSRSGTDVDAANLRETFRNLKYEVRNKNDLTREEIVELMRDVSKEDHSKRSSFVCVLLSHGEEGIIFGTNGPVDLKKITNFFRGDRCRSLTGKPKLFIIQACRGTELDCGIETDSGVDDDMACHKIPVEADFLYAYSTAPGYYSWRNSKDGSWFIQSLCAMLKQYADKLEFMHILTRVNRKVATEFESFSFDATFHAKKQIPCIVSMLTKELYFYH
- processing of 35S-labeled proMch6 (Tricine-SDS-PAGE and autoradiography) [4]: CPP32 cleaves proMch6 at one site to generate two cleavage products of approximately 37 kDa or p37 and approximately 10 kDa or p10

B3: DEVD-CHO (Asp-Glu-Val-Asp-aldehyde) (peptide)
peptide: DEVD-aldehyde
notes: Tetrapeptide aldehyde substrate analog; also called DEVD-CHO peptide
- Ki [5]: < 10 nM
